# Positions count from the first letter of the chain named. Names may count otherwise.
# T1: FcγRIIb (human, UniProt P31994 43-217, limits assumed)
# T1 construct: SPR analyte; also called FcγIIB; CD32
# T1 sequence: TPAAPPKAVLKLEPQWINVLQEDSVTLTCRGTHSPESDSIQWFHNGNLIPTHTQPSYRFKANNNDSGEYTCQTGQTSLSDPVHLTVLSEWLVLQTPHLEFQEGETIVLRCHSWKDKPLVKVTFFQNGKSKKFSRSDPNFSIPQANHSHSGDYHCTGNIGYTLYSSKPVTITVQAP
# T2: FcγRIIa type R (human, UniProt P12318 36-217)
# T2 construct: SPR analyte; also called FcγRIIaR; FcγRIIa(R)
# T2 chain: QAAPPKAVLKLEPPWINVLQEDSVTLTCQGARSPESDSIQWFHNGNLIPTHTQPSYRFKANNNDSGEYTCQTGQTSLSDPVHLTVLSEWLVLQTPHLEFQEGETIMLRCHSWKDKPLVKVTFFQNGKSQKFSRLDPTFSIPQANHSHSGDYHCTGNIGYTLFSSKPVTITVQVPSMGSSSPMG
# T3: human FcγRIIb (human, UniProt P31994 43-217, limits assumed)
# T3 construct: also called hFcgRIIb; FcγIIB
# T3 sequence: T1 sequence
# T4: human FcγRIIa(H) (human, UniProt P12318 36-217)
# T4 construct: also called hFcgRIIa(H); FcγRIIa type H
# T4 sequence: T2 chain with R133H
# T5: human FcγRIIa(R) (human, UniProt P12318 36-217)
# T5 construct: also called hFcgRIIa(R); FcγRIIa type R
# T5 chain: T2 chain
# T6: FcγRIIa type H (human, UniProt P12318 36-217)
# T6 construct: SPR analyte; also called FcγRIIaH
# T6 sequence: T2 chain with R133H
# T7: human FcγRIIb (human, UniProt P31994 43-217, limits assumed)
# T7 construct: also called FcγIIB
# T7 sequence: T1 sequence
# T8: human FcγRIIa type R (human, UniProt P12318 36-217)
# T8 construct: also called FcγRIIaR; FcγRIIa(R)
# T8 chain: T2 chain
# B1: IL6R-BP082/IL6R-L (antibody, human IgG1)
# heavy: QVQLQESGPGLVKPSETLSLTCAVSGHSISHDHAWSWVRQPPGEGLEWIGFISYSGITNYNPSLQGRVTISRDNSKNTLYLQMNSLRAEDTAVYYCARSLARTTAMDYWGEGTLVTVSSASTKGPSVFPLAPSSKSTSGGTAALGCLVKDYFPEPVTVSWNSGALTSGVHTFPAVLQSSGLYSLSSVVTVPSSSLGTQTYICNVNHKPSNTKVDKKVEPKSCDKTHTCPPCPAPDLLGGDSVFLFPPKPKDTLMISRTPEVTCVVVDVSHEDPEVKFNWYVDGVEVHNAKTKPREEQYNSTYRVVSVLTVLHQDWLNGKEYKCKVSNKALPKPIEKTISKAKGQPREPQVYTLPPSRDELTKNQVSLTCLVKGFYPSDIAVEWESNGQPENNYKTTPPVLDSDGSFFLYSKLTVDKSRWQQGNVFSCSVMHEALHNHYTQESLSLSP
# light: DIQMTQSPSSLSASVGDRVTITCRASQDISSYLNWYQQKPGKAPKLLIYYTSRLHSGVPSRFSGSGSGTDFTFTISSLQPEDIATYYCQQGNTLPYTFGQGTKVEIK
# B2: IL6R-BP150/IL6R-L (antibody, human IgG1)
# heavy: B1 heavy with D235E, L236Y, G239D, K328A, K332R
# light: B1 light
# B3: IL6R-BP151/IL6R-L (antibody, human IgG1)
# heavy: B1 heavy with L236Y, G239D, K328A, K332R
# light: B1 light
# B4: IL6R-BP177/IL6R-L (antibody, human IgG1)
# heavy: B1 heavy with L236Y, G239D, P273G, K328D
# light: B1 light
# B5: antibody with VH3-IgG1-F938 heavy chain and L(WT)-CK light chain (antibody)
# heavy: B1 heavy with D235E, L237K, D240P, S241K, M254Y, K332A, N436Y, Y438V, E441K
# light: not shown
# notes: L235K/S239K on VH3-IgG1-F890; copies: 2 + 2
# B6: antibody with VH3-IgG1-F1315 heavy chain and L(WT)-CK light chain (antibody)
# heavy: B1 heavy with D235E, G239K, D240P, S241K, M254Y, K332A, N436Y, Y438V, E441K
# light: not shown
# notes: G237K/S239K on VH3-IgG1-F890; copies: 2 + 2
# B7: antibody with VH3-IgG1-F1317 heavy chain and L(WT)-CK light chain (antibody)
# heavy: B1 heavy with D235E, D240P, S241K, M254Y, P331K, K332A, N436Y, Y438V, E441K
# light: not shown
# notes: S239K/P329K on VH3-IgG1-F890; copies: 2 + 2
# B8: antibody with VH3-IgG1-F1316 heavy chain and L(WT)-CK light chain (antibody)
# heavy: B1 heavy with D235E, G239R, D240P, S241K, M254Y, K332A, N436Y, Y438V, E441K
# light: not shown
# notes: G237R/S239K on VH3-IgG1-F890; copies: 2 + 2
# B9: antibody with VH3-IgG1-F1333 heavy chain and L(WT)-CK light chain (antibody)
# heavy: B1 heavy with D235E, L237R, G238R, D240P, S241K, M254Y, K332A, N436Y, Y438V, E441K
# light: not shown
# notes: L235R/G236R/S239K on VH3-IgG1-F890; copies: 2 + 2
# B10: antibody with VH3-IgG1-F1356 heavy chain and L(WT)-CK light chain (antibody)
# heavy: B1 heavy with D235E, G238R, D240P, M254Y, L330R, K332A, N436Y, Y438V, E441K
# light: not shown
# notes: G236R/L328R on VH3-IgG1-F890; copies: 2 + 2
# B11: antibody with VH3-IgG1-F1325 heavy chain and L(WT)-CK light chain (antibody)
# heavy: B1 heavy with D235E, L236A, L237A, D240P, M254Y, N299A, K332A, N436Y, Y438V, E441K
# light: not shown
# notes: L234A/L235A/N297A on VH3-IgG1-F890; copies: 2 + 2
# B12: antibody with VH3-IgG1-F1318 heavy chain and L(WT)-CK light chain (antibody)
# heavy: B1 heavy with D235E, D240P, S241K, M254Y, P331R, K332A, N436Y, Y438V, E441K
# light: not shown
# notes: S239K/P329R on VH3-IgG1-F890; copies: 2 + 2
# B13: IL6R-F652/IL6R-L (antibody, human IgG1)
# heavy: B1 heavy with D235E, M254Y, K332A, N436Y, E441K
# light: B1 light
# notes: IL6R-F11 with P238D (EU numbering)
# B14: IL6R-PD042/IL6R-L (antibody, human IgG1)
# heavy: B1 heavy with D235E, L236W, M254Y, K332A, N436Y, E441K
# light: B1 light
# notes: Alteration introduced into IL6R-F11; also called P238D/L234W; L234W/P238D
# B15: IL6R-PD080/IL6R-L (antibody)
# chain 1: B1 heavy with D235E, G239D, M254Y, K332A, N436Y, E441K
# chain 2: not shown
# Target: T1, FcγRIIb
# Assay: ratio of SPR KDs: KD for FcγRIIaR over KD for FcγRIIb
# From the text: (§1) Furthermore, KD(IIaR)/KD(IIb) and KD(IIaH)/KD(IIb) in the table respectively represent the value obtained by dividing the KD value of each variant for FcγRIIaR by the KD value of each variant for FcγRIIb, and the value obtained by dividing the KD value of each variant for FcγRIIaH by the KD value of each variant for FcγRIIb.
row,KD(IIaR)/KD(IIb),Binder
1,22.8,B1
2,17.7,B2
3,16.9,B3
4,13.8,B4

# Target: T2, FcγRIIa type R
# Assay: ratio of SPR KDs; stronger receptor here FcγRIIaR; reference IL6R-B3/IL6R-L (FcγRIIaH)
# From the text: Furthermore, KD(IIaR)/KD(IIb) and KD(IIaH)/KD(IIb) in the table respectively represent the value obtained by dividing the KD value of each variant for FcγRIIaR by the KD value of each variant for FcγRIIb, and the value obtained by dividing the KD value of each variant for FcγRIIaH by the KD value of each variant for FcγRIIb. KD(IIb) of the parent polypeptide/KD(IIb) of the altered polypeptide refers to the value obtained by dividing the KD value of the parent polypeptide for FcγRIIb by the KD value of each variant for FcγRIIb.
row,KD of the stronger of FcγRIIaR/FcγRIIaH binding of the variant / that of the parent polypeptide,Binder
1,15.8,B1
2,0.7,B2
3,0.9,B3
4,0.9,B4

# Target: T9, human FcγRIa (human, UniProt P12314 16-292, limits assumed)
# T9 construct: also called hFcgRIa; hFcgRI
# Assay: SPR, antibody captured by Protein L, human FcγR as analyte, pH 7.4, 25 C;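 further: biacore T100 or T200 with Protein L amine-coupled on a CM4 chip, FcγRs diluted in ACES saline with polysorbate 20, buffer-only injection as blank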
# T9 sequence (P12314 16-292 limits assumed): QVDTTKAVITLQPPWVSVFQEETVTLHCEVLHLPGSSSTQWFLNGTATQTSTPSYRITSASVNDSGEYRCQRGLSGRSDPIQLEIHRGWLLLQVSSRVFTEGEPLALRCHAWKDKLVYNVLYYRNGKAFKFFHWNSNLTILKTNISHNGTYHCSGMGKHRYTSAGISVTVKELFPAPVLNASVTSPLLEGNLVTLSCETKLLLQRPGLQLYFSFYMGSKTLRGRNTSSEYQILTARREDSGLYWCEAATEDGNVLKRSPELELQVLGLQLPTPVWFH
# Method: (§2) Binding activity between the antibodies and human FcγRIa, FcγRIIa(H), FcγRIIa(R), FcγRIIb and FcγRIIIa(F) (hereinafter referred to as human FcγRs) was evaluated using the BIACORE™ T100 or T200 surface plasmon resonance system (GE Healthcare). The antibodies being tested were captured by Protein L (ACTIGEN® protein (Alltech)) that was immobilized in suitable amounts on the CM4 Sensor Chip (GE Healthcare) by amine coupling. Next, the diluted human FcγRs and a running buffer used as a blank were injected to allow interaction with the antibodies captured on the sensor chip. A buffer consisting of 20 mmol/L N-(2-acetamido)-2-aminoethanesulfonic acid (ACES), 150 mmol/L NaCl and 0.05% (w/v) polysorbate 20 (Tween 20®) (pH 7.4) was used for the running buffer, and this buffer was also used to dilute the human FcγRs. 10 mmol/L glycine-HCl (pH 1.5) was used to regenerate the sensor chip. All measurements were carried out at 25° C.
row,BINDING AMOUNT (RU),Binder
1,-0.49 RU,B5
2,-2.71 RU,B6
3,-1.46 RU,B7
4,-0.12 RU,B8
5,-0.35 RU,B9
6,-0.9 RU,B10
7,-0.47 RU,B11
8,-0.31 RU,B12

# Target: T3, human FcγRIIb
# Assay: as above
# Method: as §2
row,BINDING AMOUNT (RU),Binder
1,-0.14 RU,B5
2,0.63 RU,B6
3,-0.23 RU,B7
4,-0.44 RU,B8
5,-0.2 RU,B9
6,0.63 RU,B10
7,1.46 RU,B11
8,0.26 RU,B12

# Target: T4, human FcγRIIa(H)
# Assay: as above
# Method: as §2
row,BINDING AMOUNT (RU),Binder
1,-0.05 RU,B5
2,-1.37 RU,B6
3,-0.76 RU,B7
4,-0.34 RU,B8
5,-0.56 RU,B9
6,-0.22 RU,B10
7,-0.62 RU,B11
8,-1.12 RU,B12

# Target: T5, human FcγRIIa(R)
# Assay: as above
# Method: as §2
row,BINDING AMOUNT (RU),Binder
1,-0.12 RU,B5
2,-1.14 RU,B6
3,-1.48 RU,B7
4,-0.33 RU,B8
5,-0.15 RU,B9
6,-0.23 RU,B10
7,-1.17 RU,B11
8,-1.59 RU,B12

# Target: T10, human FcγRIIIa(V) (human, UniProt P08637 17-208, limits assumed)
# T10 construct: also called hFcgRIIIa(V); allotype V158
# Assay: as above
# Method: as §2
# T10 sequence (P08637 other isoform, or with tags, fused parts or gaps limits assumed): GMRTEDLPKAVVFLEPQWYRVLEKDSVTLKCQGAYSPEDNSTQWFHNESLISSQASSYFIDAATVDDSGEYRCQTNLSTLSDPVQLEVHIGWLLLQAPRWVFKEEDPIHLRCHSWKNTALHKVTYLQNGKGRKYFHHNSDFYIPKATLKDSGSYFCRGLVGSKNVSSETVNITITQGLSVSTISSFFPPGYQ
row,BINDING AMOUNT (RU),Binder
1,1.2 RU,B5
2,-2.69 RU,B6
3,-2.76 RU,B7
4,-0.42 RU,B8
5,-1.42 RU,B9
6,0.09 RU,B10
7,-2.4 RU,B11
8,-3.63 RU,B12

# Target: T1, FcγRIIb
# Assay: SPR (Biacore), antibody captured, FcγR analyte
row,Kd,Binder
1,540 nM,B1
2,31 nM,B2
3,40 nM,B3
4,52 nM,B4

# Target: T6, FcγRIIa type H
# Assay: SPR (Biacore), antibody captured, FcγR analyte
row,Kd,Binder
1,37000 nM,B1
2,3400 nM,B2
3,4700 nM,B3
4,8200 nM,B4

# Target: T2, FcγRIIa type R
# Assay: SPR (Biacore), antibody captured, FcγR analyte
row,Kd,Binder
1,12000 nM,B1
2,550 nM,B2
3,670 nM,B3
4,710 nM,B4

# Target: T11, FcγRIIIa type V (human, UniProt P08637 17-208, limits assumed)
# T11 construct: SPR analyte; allotype V158 was used here; also called FcγRIIIaV; FcγRIIIa(V)
# Assay: SPR (Biacore), antibody captured, FcγR analyte
# T11 sequence (P08637 other isoform, or with tags, fused parts or gaps limits assumed): as above
row,Kd,Binder
1,81000 nM,B1
2,34000 nM,B2
3,31000 nM,B3
4,37000 nM,B4

# Target: T12, FcγRIa (human, UniProt P12314 16-292, limits assumed)
# T12 construct: SPR analyte; also called CD64
# Assay: SPR (Biacore), antibody captured, FcγR analyte
# T12 sequence (P12314 16-292 limits assumed): as the sequence (P12314 16-292 limits assumed) above
row,Kd,Binder
1,18 nM,B1
2,320 nM,B2
3,84 nM,B3
4,33 nM,B4

# Target: T7, human FcγRIIb
# Assay: SPR (Biacore), binding amount relative to IL6R-F652/IL6R-L = 100
row,relative binding activity,Binder
1,100,B13
2,106,B14

# Target: T8, human FcγRIIa type R
# Assay: as above
row,relative binding activity,Binder
1,100,B13
2,240,B14

# Target: T1, FcγRIIb
# Assay: ratio of SPR KDs: KD for FcγRIIaH over KD for FcγRIIb
# From the text: as §1
row,KD(IIaH)/KD(IIb),Binder
1,69,B1
2,109,B2
3,118,B3
4,159,B4

# Target: T1, FcγRIIb
# Assay: ratio of SPR KDs; reference IL6R-B3/IL6R-L
row,KD(IIb) of the parent polypeptide/KD(IIb) of altered polypeptide,Binder
1,5.8,B1
2,99,B2
3,77.4,B3
4,60,B4

# Target: T7, human FcγRIIb
# Assay: SPR (Biacore); KD for FcγRIIaR divided by KD for FcγRIIb of the same antibody
row,KD(IIaR)/KD(IIb),Binder
1,8.1,B14

# Target: T7, human FcγRIIb
# Assay: SPR (Biacore); KD for FcγRIIaH divided by KD for FcγRIIb of the same antibody
row,KD(IIaH)/KD(IIb),Binder
1,9.5,B14

# Target: T7, human FcγRIIb
# Assay: SPR (Biacore); ratio against parent IL6R-F11/IL6R-L
row,KD(IIb) of parent polypeptide/KD(IIb) of altered polypeptide,Binder
1,3.4,B14

# Target: T7, human FcγRIIb
# Assay: SPR (Biacore), antibody captured, FcγR as analyte
row,Kd,Binder
1,2000 nM,B14

# Target: T8, human FcγRIIa type R
# Assay: SPR (Biacore), antibody captured, FcγR as analyte
row,Kd,Binder
1,21000 nM,B15
2,16000 nM,B14

# Target: T13, human FcγRIa (human, UniProt P12314 16-292, limits assumed)
# T13 construct: also called CD64
# Assay: SPR (Biacore), antibody captured, FcγR as analyte
# T13 sequence (P12314 16-292 limits assumed): as above
row,Kd,Binder
1,63 nM,B14

# Reference: patent US20200199241A1 (Chugai, published 2020)
